Substrate in the series: CC1=CC(O/C=C(C)\C=C\C2=C(C)CCCC2(C)C)OC1=O
Description: LC-MS/MS of BSB formed by yeast microsomes, Michaelis-Menten fit. It is filed as biochemical, Marchantia paleacea. The conditions noted are these: rac-CL 0.25 to 33 μM, NADPH 500 μM, 28 °C, 10 min, microsomes of WAT11 yeast, overall two-step conversion CL to BSB via CLA.

B1: MpaMAX1 (Marchantia paleacea subsp. diptera) (protein)
chain: MITSMEGWTGVGALGSLVFMVVIMVYYFYPTWKVRHIPVPPYTWFLGHIPLLTKHQALCWTMLAKDYGPMYRFHVGRQPMVMVTDAELCRQVGLKLFKQVPNRSNPAMIEGSSVLKKALFFSRDEQWSGMKSILQPLFHSDKMNNYTPIMTQIVDELLERLRSVKEGEDVNISRLFQRLTLDVIGEVAFGIKFGLVLETPGPDEWLVQTTVKSIDALRMDAGAGVPLSTIVGTFFPILQKPFRSLLRMIPGTPEWVADGSDHALKLRLRQIQQEREELMRRNGSVSRVDSLSLLLNSSKLNKQNGKLLTQDYIGALTYELTLVGSETSSVTLSMLTYLLALHPECERKMLAEIDAFGPRDLPITTEDLETKFPYVDMVIKETMRKHTTTPVVAREASEDIELGGYHLPKGTWVWLVLEALQMNPKDFPEPEEFRPERFDENCDEAKTRHPYAFLPFGVGPRSCLGKRFAAQEVKLTVVRLYQNFTFTLSPLTKVPLETQFGIVVRPKHGVCVRVHPRWTRL
notes: cDNA in pYeDP60, expressed in yeast WAT11 (Saccharomyces cerevisiae); microsomal fraction
As for B1, the Km is 4.78 ± 1.22 µM.

For orientation: Km means the substrate concentration at which the rate is half of its maximum.

Source of the values: publication PMC9270392, “An ancestral function of strigolactones as symbiotic rhizosphere signals” (Nature Communications, 2022).
